Measured values from patent US20240156915A1.

Target: exenatide (Gila monster) (UniProt P26349)
Sequence (P26349 48-86): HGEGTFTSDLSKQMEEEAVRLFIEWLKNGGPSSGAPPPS

pepsin (enzyme)
Residual content of exenatide in percent (%): 0%
